For this assay, the target named is PKA RIα (Homo sapiens, UniProt P10644). Put plainly: fluorescence polarization competition vs RI-STAD-3. For orientation: In fluorescence polarisation assays a small probe gives low polarisation when free and higher when bound to something large.

In article PMC4475429 (2015) one finds IC50 data, which are given here for 1 molecule.

PKA RIα, sequence (P10644 whole entry): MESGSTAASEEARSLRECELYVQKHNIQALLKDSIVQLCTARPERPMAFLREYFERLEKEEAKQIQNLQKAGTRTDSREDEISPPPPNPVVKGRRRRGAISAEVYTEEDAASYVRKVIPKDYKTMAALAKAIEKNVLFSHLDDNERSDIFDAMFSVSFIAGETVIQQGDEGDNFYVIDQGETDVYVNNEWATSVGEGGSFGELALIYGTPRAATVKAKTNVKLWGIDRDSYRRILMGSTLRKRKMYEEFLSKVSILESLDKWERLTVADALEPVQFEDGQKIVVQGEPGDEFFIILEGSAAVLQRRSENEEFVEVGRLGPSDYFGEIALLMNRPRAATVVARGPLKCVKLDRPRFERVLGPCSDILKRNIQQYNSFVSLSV

B1: Ht31 AKB (peptide)
chain: WKNVLQGGESTKERFENSNIGTA
A word on the IC50: it is the concentration that inhibits the measured activity by half. As for B1, the IC50 worked out at 1500 nM.
